# In patent US20240150797A1, “BIOCATALYTICAL PRODUCTION OF DIHYDROCHALCONES” (Symrise AG, priority 2021, published 2024):
# Where a chain is given by its changes, count along the chain named.
# B1: CHI13: Chalcone isomerase from Lactobacillus sp. 54-2, access no. WP_125715151.1 (protein)
# chain: SFEFRPMRSVIYVDVIKEKYRPKLLHWLYGHHIQDSISKFGPYVTKYAFYNAFPVPPEGERFGTRRMQMTEHYWLINEMTPEMKNNAITEYMPKDVLRWQGNIPDTDAAAAGNVDGDTGRSAGGANGCQPFVFAHVPINWEEDYKGDGRMVADGPNYRWQFVIKYPENLTEAAGEAWFHDEVVPYFKGRPEVHRFMSSRIMQDVVGCEFERLVEMWFDSEDEWYTAAVAGTTALKKPSWAQQNQFPFLTPQFNIVGMFLPDIPTSDNLAQYRGYITMR
# modifications: Lactobacillus sp. 54-2
# B2: CHIera Mut2: Chalcone isomerase variant 2 from Eubacterium ramulus, genetically engineered (protein, listed as Eubacterium ramulus)
# chain: MADFKFEPMRSLIYVDCVSEDYRPKLQRWIYKVHIPDSISQFEPYVTKYAFYPSFPIPPQGDRFGYARMQLTEHHWLVSPLDPRLEIKAIAETFPMDVLVWQGQIPAAAHTDAQIDSDGDAGRAAGKSNNAEGNPFIFAFLPMWWEKDLKGKGRTIEDGANYRFNMTIGFPEGVDKAEGEKWLFEKVVPILQAAPECTRVLASAVKKDINGCVMDWVLEIWFENQSGWYKVMVDDMKALEKPSWAQQDAFPFLKPYHNVCSAAVADYTPSNNLANYRGYITMR
# B3: CHIera Mut4: Chalcone isomerase variant 4 from Eubacterium ramulus, genetically engineered (protein, listed as Eubacterium ramulus)
# chain: B2 chain with P80E, G126K
# B4: CHI11: Chalcone isomerase from Eubacterium sp., access no. SCK02381.1 (protein)
# chain: TKNMLGFEPMRSLIYVDVAKEDYRVKLENWLYKYHIPDSISQFGPYVSKYAFYQALPVPEGGERFGAIKMQLTEHYWLANPNNIAQFDHHKALTEYFPPDVLKWQGNLPDEDFQCENVEGDEARAVKGDASKGTVPFIFAFVPVWWEEDYKGAGRTIEDGPNYRWQMVIKFPDDAKDTGDKWLRDEFIPAFVECEETTRILSSKVIKEANGCEFDRVVEMWFEGPSAWKAAVGKAAKKVRRPAWFETEDFPYLTQSYGISSIFLSDIARSDNMTQYNGYVTMR
# modifications: Eubacterium sp
# B5: CHI10: Chalcone isomerase from Clostridium sp. SY8519, access no. WP_013977558.1 (protein)
# chain: ADFEFNPMRSLIYIDCVKNDYRHKLQYWLYKHHIPDSIAKFEPYVSKYAFYSALPVPEDGEEFGTYNYQLTEHYWLCNPLTADFAVNSLQESFTPDVLKWQGIIPDIDITPEMMAAMQNADDARASEGSEAPGFDLPPFIFAFLPLSWEFQTKGEKLTIEDGPNYRWQFLVKYPEAADAEQADKWLMEEVIPAFAQMDEVKRILSSKVKQEVNGCVYYRVVEMWFDSPSDWHRAVKEKTGAISKPEWASTDSFPYLRPKHEMASIFLSDIPTTDNLLQYRGFIPMR
# modifications: Clostridium sp. SY8519
# B6: CHI15: Chalcone isomerase from Clostridioides difficile, access no. WP_095917646.1 (protein)
# chain: ADFEFKIMRSLIYVGLAKEEYRPKLMDWLYRHHIPDSISTFGPYCTKYAFYQAYPTPNEGERFGARKMQLTEHYWLVDEHMPEMANRIMTEYMPMDVLRWQGCIPDVENKRVHENVESGDAGRAVGGDNGCPPFIFAFVPINWEEDFRGKGRTVQDGPNYRWQFMIKYPDGISKEEGEKWFYDEVVPYFTNCCYVNRFVSSKIMINYGATAFDRVSELWFEGEEEWYKAVVEETKSFIKKPEWAQEEEFPYLKPQFNIASVFLGDIATMDAYSQYRGYIPMR
# modifications: Clostridioides difficile
# B7: CHI14: Chalcone isomerase from Butyrivibrio sp. AC2005, access no. WP_026657636.1 (protein)
# chain: AYEFNLMRSLIYVGLAKEEYRAKLEHWLYNHHVPESISKFSPYVTKYAFYQAYPTPPEGDRFGARKMQLTEHYWLVNEHLPEMANNIFQEFMPMDVLRWQGCIPDVDSATVHDNAESGDAGRAVGGGDFPPFIFAFVPINWEEDFKGKERTPVNGPNFRWQFLIQYPEGCSKDEGERWFHEEVVPFLTGSVRVNRLVSSKVKVNYGAPSAQFDRLVEVWFDGPEEWYDLCVNLAKDKLKKPEWAQQDTFPFLKPQHNIASMFLGDRCTSDNLTQYRGFITMR
# modifications: Butyrivibrio sp. AC2005
# B8: CHI7: Chalcone isomerase from Clostridium sp. SY8519, access no. WP_013978403.1 (protein)
# chain: ADFKFEPMRSFIYVNCAKEDYRPKLQRWLYKTHVPDSIGQFEPYVTKYAFYPSFPTPPEGERFGYCSMQLTEHHWMVSDFDERLGIKAIAETFPPEVLLWQGNITEGMLEAMKKNGGAPGDDGGDSGNEARSTNMEGANPFIFCFAPYWWEDDIKGKGRTIEDGANYRWNVAIGYPEGVSAEEGDRWLFEEVIPVFEAAPECTRILHSKVKKEINGGSGMEHILEFWFENQSGWYQTAVEATKTLKKPAWAQQDQFPFLKPYHKFISVAVADFTMANNLVNYHGYIPRR
# modifications: Clostridium sp. SY8519
# B9: CHI3: Chalcone isomerase from Clostridium sp. JN500901, access no. WP_119972745.1 (protein)
# chain: SIEFKPMRSLIYVDVVKEDYRHMLKHWLYYHHIPDSISQFGPYVTKYAFYPALPTPPDGERFGTHRMQLTEHYWLVNPLTPEFKNKTMTEYFPVDVLKWQGNVPDDNEVAILEGKETEKVESGDAARSTGGDNGMPPFIWAFVPISWEEDLKGEGRSMEDGPNYRWQFVMKYPDGVPMEEGDKWFYKEVIPKFQDSPDVTRILTSKIIQNINDCPYQRIVEMWFNCPSGWHRAAVEKAREIKKPSWAKYDEFPYLKPKFEISSLFLTDIAESDNYTQYRGFIPMR
# modifications: Clostridium sp. JN500901
# Experiment: Specific activity of purified CHI, absorbance decrease at 384 nm, hesperetin chalcone
# Format: biochemical
# Settings: purified CHI in 50 mM PBS, 100 μM substrate, 25° C.
# Protocol: (§1) E. coli BL21 (DE3) cells containing one of the pET28b plasmids from Table 2 or Table 3 were used to inoculate 1 L LB medium at OD of 0.1. Cells were incubated at 37° C., 250 rpm until the OD reached 0.4-0.6 and induced by supplementing with 0.1 mM IPTG. After protein expression at 28° C., 250 rpm for 16 h, the cells were harvested by centrifugation at 4,000×g for 15 min. The harvested cells were lysed with 0.5 mg/mL lysozyme (Sigma-Aldrich), 0.4 U/mL Benzonase (Sigma-Aldrich) and BugBuster (Merck) at room temperature for 0.5 h to obtain a crude cell extract. The crude extract was centrifuged at 10,000×g for 30 min to remove the pellet. Recombinant proteins were purified by Ni-affinity chromatography (GE Healthcare). The supernatant of the crude extract was loaded on the column with 20 mM imidazole. The column was washed by 5 column volumes of 30 mM imidazole with 20 mM PBS (pH 7.4) and 500 mM NaCl. The target proteins were eluted by 150 mM imidazole with 20 mM PBS (pH 7.4) and 500 mM NaCl. Buffer exchange with 50 mM PBS (pH 7.5) was achieved by ultrafiltration with Amicon Ultra-15 (Merck). The activity of the respective purified enzyme was determined by measuring the absorbance decrease at 384 nm in the reaction mix (CHI in 50 mM PBS with 100 μM of either naringenin chalcone, hesperetin chalcone, eriodictyol chalcone, homoeriodictyol chalcone or 4-O-methyl butein at 25° C.).
row,Molecule,"Specific activity, Hesperetin chalcone"
1,B1,2.0
2,B2,11.5
3,B3,4.7
4,B4,5.8
5,B5,1.2
6,B6,1.3
7,B7,2.1
8,B8,6.4
9,B9,12.8

# Experiment: Specific activity of purified CHI, absorbance decrease at 384 nm, naringenin chalcone
# Format: biochemical
# Settings: purified CHI in 50 mM PBS, 100 μM substrate, 25° C.
# Protocol: as §1
row,Molecule,"Specific activity, Naringenin chalcone"
1,B1,32.7
2,B2,4.4
3,B3,2.3
4,B4,23.2
5,B5,0.7
6,B6,14.5
7,B7,45.9
8,B8,68.3
9,B9,20.0

# Experiment: Specific activity of purified CHI, absorbance decrease at 384 nm, eriodictyol chalcone
# Format: biochemical
# Settings: purified CHI in 50 mM PBS, 100 μM substrate, 25° C.
# Protocol: as §1
row,Molecule,"Specific activity, Eriodictyol chalcone"
1,B1,66.2
2,B2,8.3
3,B3,8.9
4,B4,10.8
5,B5,2.5
6,B6,11.7
7,B7,50.4
8,B8,123.6
9,B9,13.2

# Experiment: Specific activity of purified CHI, absorbance decrease at 384 nm, homoeriodictyol chalcone
# Format: biochemical
# Settings: purified CHI in 50 mM PBS, 100 μM substrate, 25° C.
# Protocol: as §1
row,Molecule,"Specific activity, Homoeriodctiol chalcone"
1,B1,21.7
2,B2,3.5
3,B3,4.8
4,B4,11.4
5,B5,0.2
6,B6,2.2
7,B7,28.8
8,B8,50.2
9,B9,7.8
